Reference: patent publication US20070166787A1 (YEDA RESEARCH AND DEVELOPMENT, published 2007)
Positions count from the first letter of the chain named. Names may count otherwise.

T1: intracellular domain of the human p75 TNF receptor (human, UniProt P20333 288-461, limits assumed)
T1 construct: domain: intracellular domain; Irrelevant control in the two-hybrid specificity test; construct not described; also called p75 IC
T1 sequence (looked up): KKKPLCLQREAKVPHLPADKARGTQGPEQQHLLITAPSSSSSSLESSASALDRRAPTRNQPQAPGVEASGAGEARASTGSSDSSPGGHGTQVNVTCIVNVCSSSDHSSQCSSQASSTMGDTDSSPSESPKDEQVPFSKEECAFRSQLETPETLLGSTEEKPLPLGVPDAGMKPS

T2: SNF 1 (UniProt P06782 1-633, limits assumed)
T2 sequence (looked up): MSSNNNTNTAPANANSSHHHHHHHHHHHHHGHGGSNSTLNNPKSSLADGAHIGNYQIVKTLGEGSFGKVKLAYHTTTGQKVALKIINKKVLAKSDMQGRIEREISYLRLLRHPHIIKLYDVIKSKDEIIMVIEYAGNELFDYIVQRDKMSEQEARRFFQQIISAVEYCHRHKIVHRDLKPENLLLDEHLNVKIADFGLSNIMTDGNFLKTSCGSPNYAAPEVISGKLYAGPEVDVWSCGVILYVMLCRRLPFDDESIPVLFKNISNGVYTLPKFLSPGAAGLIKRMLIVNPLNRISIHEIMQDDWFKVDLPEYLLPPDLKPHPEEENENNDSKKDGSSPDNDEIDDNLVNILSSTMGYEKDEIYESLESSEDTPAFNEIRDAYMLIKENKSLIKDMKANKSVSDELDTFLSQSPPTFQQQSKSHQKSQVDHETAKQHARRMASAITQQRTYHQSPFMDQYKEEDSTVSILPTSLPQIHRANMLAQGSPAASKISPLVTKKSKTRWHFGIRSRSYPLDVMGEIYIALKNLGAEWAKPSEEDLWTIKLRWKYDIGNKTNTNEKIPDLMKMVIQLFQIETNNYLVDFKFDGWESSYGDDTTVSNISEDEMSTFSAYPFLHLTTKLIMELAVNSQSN

B1: death domain (DD) of human TRADD, residues 195-312, Gal4 hybrid construct (other, not shown: large carriers)
chain: PPPPAQTFLFQGQPVVNRPLSLKDQQTFARSVGLKWRKVGRSLQRGCRALRDPALDSLAYEYEREGLYEQAFQLLRRFVQAEGRRATLQRLVEALEENELTSLAEDLLGLTDPNGGLA
notes: Yeast two-hybrid fusion; also called TRADD DD
B2: death domain (DD) of human MORT-1, residues 92-208, Gal4 hybrid construct (other, not shown: large carriers)
chain: PGEEDLCAAFNVICDNVGKDWRRLARQLKVSDTKIDSIEDRYPRNLTERVRESLRIWKNTEKENATVAHLVGALRSCQMNLVADLVQEVQQARDLQNRSGAMSPMSWNSDASTSEAS
notes: Yeast two-hybrid fusion; also called MORT-1 DD; HF1
B3: DD of the rat low-affinity NGF receptor (receptor, UniProt P07174 340-425, looked up)
chain: LPLTKREEVEKLLNGDTWRHLAGELGYQPEHIDSFTHEACPVRALLASWGAQDSATLDALLAALRRIQRADIVESLCSESTATSPV
notes: domain: DD; Control in the two-hybrid specificity test; construct not described; also called rat NGF-R DD
B4: death domain (DD) of human p55 TNF-R, residues 326-426, Gal4 hybrid construct (receptor, not shown: large carriers)
chain: DPATLYAVVENVPPLRWKEFVRRLGLSDHEIDRLELQNGRCLREAQYSMLATWRRRTPRREATLELLGRVLRDMDLLGCLEDIEEALCGPAALPPAPSLLR
notes: Yeast two-hybrid fusion; also called p55-R; p55 TNF-R DD
B5: human p55 TNF-R DD (residues 326-426) point mutant L351N, Gal4 hybrid construct (receptor, not shown: large carriers)
chain: B4 chain with L26N
notes: Legend prints 'L35IN'; also called p55-R L35IN; p55 TNF-R (L351N)

Tests used:
[1] = biological target: T1, intracellular domain of the human p75 …; assay: yeast two-hybrid specificity test (not shown)
SNF 1 = biological target: T2, SNF 1; assay: yeast two-hybrid specificity test (not shown)
[2] = biological target: the molecule itself; assay: yeast two-hybrid, beta-galactosidase filter assay, SFY526
Source text: (§1) Two-Hybrid β-Galactosidase Expression Tests. cDNA inserts were cloned by PCR, either from the full-length cDNAs cloned previously in our laboratory, or from purchased cDNA libraries. Residue numbering in the proteins encoded by the cDNA inserts are as in the Swiss-Prot Data Bank. Point mutants were produced by oligonucleotide-directed mutagenesis (Kunkel, 1994). β-galactosidase expression in yeasts (SFY526 reporter strain (Bartel et al, 1993)) transformed with these cDNAs in the pGBT-9 and pGAD-GH vectors (DNA binding domain (DBD) and activation domain (AD) constructs, respectively) was assessed by a filter assay (Boldin et al, 1995). When expressed in the pGAD-GH vector, RIP and its DD had some cytotoxic effect on the yeasts, manifested in a low yield of yeast colonies.
(§2) The interactions of the DDs of human p55 TNF-R, FAS-R, TRADD, MORT-1 and RIP were evaluated first by a yeast two-hybrid test. The cDNAs encoding these domains were expressed as fusion proteins with the Gal4 DNA binding and activation domains (DBD and AD constructs) in the yeast SFY526 reporter strain, and the binding of these fusion proteins to each other was assessed by determining β-galactosidase expression by the yeasts. The results of these tests are summarized in FIG. 1 and illustrated diagrammatically in FIG. 3.

[3] = biological target: B1; assay: as above
Source text: as §1, §2

[4] = biological target: the molecule itself; assay: yeast two-hybrid, self-association, beta-galactosidase filter assay, SFY526
Source text: as §1, §2

[5] = biological target: B1; assay: yeast two-hybrid specificity test (not shown)
[6] = biological target: B4; assay: yeast two-hybrid specificity test (not shown)
[7] = biological target: B2; assay: yeast two-hybrid specificity test (not shown)
[8] = biological target: B2; assay: yeast two-hybrid, beta-galactosidase filter assay, SFY526
Source text: as §1, §2

[9] = biological target: B1; assay: yeast two-hybrid (summing up of Example 2)
Source text: as §1, §2

[10] = biological target: the molecule itself; assay: yeast two-hybrid, beta-galactosidase filter assay
Source text: (§3) FIG. 2 depicts interactions of the ‘death domains’ of the P55-R, Fas/APOI, MORT-1, TRADD and. RIP in a yeast two-hybrid test, and the effect of lbr^cg-like mutations in these proteins on their interactions. Assessment of the interaction of Gal4 hybrid constructs encompassing the following human proteins, truncated upstream to their DD motifs: p55-R (residues 326-426), FAS-R (residues 210-319), MORT-1 (residues 92-208), TRADD (residues 195-312) and RIP (residues 261-372), as well as of the following points mutants of these proteins: p55-R L35IN, FAS-R V238N, MORT-1 V121N, and RIP F308N, whose mutation sites within the DDs correspond to that found in the FAS-R of the lpr^cg mice. Each cDNA insert was introduced both into the Gal4 DNA binding domain (DBD) and the Gal4 activation domain (AD) constructs (pGBT9 abd pGAD-GH), and the binding of the inserts in both constructs to all other inserts within transfected SFY526 yeasts was assessed by a β-galactosidase expression filter assay. The results are presented in terms of the time required for development of strong color. ND—not done.
as §1

[11] = biological target: B1; assay: yeast two-hybrid, beta-galactosidase filter assay
Source text: as §3, §1

[12] = biological target: B2; assay: yeast two-hybrid, beta-galactosidase filter assay
Source text: as §3, §1

B1
binding result [1]: no binding
binding result (SNF 1): no binding
binding result [2]: binds

B2
binding result [1]: no binding
binding result (SNF 1): no binding
binding result [3]: binds
binding result [4]: no binding

B3
binding result [5]: no binding
binding result [6]: no binding
binding result [7]: no binding

B4
binding result [1]: no binding
binding result (SNF 1): no binding
binding result [8]: no binding
binding result [9]: binds

B5
binding result [10]: no binding
binding result [11]: no binding
binding result [12]: no binding
